One experiment addresses T1, mouse NaPi2b (mouse, UniProt Q9DBP0 1-697).
T1 construct: also called Ms NaPi2b; CL #13476
T1 sequence: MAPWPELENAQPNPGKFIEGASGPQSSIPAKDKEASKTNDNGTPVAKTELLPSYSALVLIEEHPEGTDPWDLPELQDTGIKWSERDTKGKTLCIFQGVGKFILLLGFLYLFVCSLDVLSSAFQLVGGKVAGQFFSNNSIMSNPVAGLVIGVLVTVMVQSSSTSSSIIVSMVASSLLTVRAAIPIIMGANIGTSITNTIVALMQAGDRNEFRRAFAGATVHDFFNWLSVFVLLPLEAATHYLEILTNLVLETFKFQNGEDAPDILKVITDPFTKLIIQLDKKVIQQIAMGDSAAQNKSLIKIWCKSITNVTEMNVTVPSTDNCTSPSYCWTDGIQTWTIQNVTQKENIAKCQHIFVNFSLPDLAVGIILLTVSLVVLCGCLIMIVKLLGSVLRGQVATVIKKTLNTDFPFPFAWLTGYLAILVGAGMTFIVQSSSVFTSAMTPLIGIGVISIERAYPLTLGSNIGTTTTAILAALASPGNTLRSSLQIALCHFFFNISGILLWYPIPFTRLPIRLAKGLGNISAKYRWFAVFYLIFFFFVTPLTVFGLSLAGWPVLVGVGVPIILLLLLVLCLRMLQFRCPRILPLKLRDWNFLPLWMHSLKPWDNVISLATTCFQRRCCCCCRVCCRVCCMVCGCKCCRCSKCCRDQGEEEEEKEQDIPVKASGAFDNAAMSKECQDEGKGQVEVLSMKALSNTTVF
As to the kind of experiment: flow cytometry on HEK293-6e cells transfected with mouse NaPi2b, 24 h at 4 C, anti-human IgG Fc AF647.

Experiment [1] has as its target T2, human sodium-dependent phosphate transporter 2B (NaPi2b) (human, UniProt O95436 1-690).
T2 construct: UniProt ID is given as 095436 [sic]; also called hNaPi2b; Hu NaPi2b
T2 sequence: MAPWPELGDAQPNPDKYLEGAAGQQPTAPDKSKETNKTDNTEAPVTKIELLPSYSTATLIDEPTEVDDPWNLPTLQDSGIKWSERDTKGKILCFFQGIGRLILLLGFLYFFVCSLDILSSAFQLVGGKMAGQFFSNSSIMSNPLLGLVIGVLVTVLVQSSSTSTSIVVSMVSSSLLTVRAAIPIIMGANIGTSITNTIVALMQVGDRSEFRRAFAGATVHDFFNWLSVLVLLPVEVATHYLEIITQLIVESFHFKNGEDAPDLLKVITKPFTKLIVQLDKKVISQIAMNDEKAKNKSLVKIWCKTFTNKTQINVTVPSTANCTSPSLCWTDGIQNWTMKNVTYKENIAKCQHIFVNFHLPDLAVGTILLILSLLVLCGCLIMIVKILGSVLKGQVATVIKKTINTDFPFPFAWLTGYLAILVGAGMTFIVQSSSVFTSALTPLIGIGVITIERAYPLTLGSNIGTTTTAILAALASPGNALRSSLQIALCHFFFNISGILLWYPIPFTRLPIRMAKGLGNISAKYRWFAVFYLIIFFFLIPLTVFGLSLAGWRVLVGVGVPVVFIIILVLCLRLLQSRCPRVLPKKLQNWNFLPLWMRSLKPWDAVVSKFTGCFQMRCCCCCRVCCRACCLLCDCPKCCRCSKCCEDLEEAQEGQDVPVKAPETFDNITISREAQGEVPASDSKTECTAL
As to the kind of experiment: flow cytometry on HEK293-6e cells transiently transfected with human NaPi2b, antibody 18-24 h at 4 C, anti-human IgG Fc AF647.
Protocol: (§1) Briefly, HEK293-6e cells were transfected for ~24 hours to transiently express human NaPi2b, cynomolgus or mouse NaPi2b, at 1 μg of DNA per 1 million cells. Following transfection, 50,000 cells per well were seeded in V-bottom 96-well plates and incubated with 200 nM of primary antibody for 18-24 hours at 4° C. to prevent internalization. […] Following staining and washing, fluorescence was detected by flow cytometry on BD LSRFortessa™ Cell Analyzer (BD Biosciences, Franklin Lake, NJ) with 10,000 minimum events collected per well. The AF647/APC-A GeoMean (fluorescence signal geometric mean, proportional to anti-Human AF647 binding) was calculated for the live singlet cell population for each primary antibody using FlowJo™ v8 software (BD Biosciences, Franklin Lake, NJ). The Bmax and Kd of each primary antibody were calculated using GraphPad Prism Version 9 (GraphPad Software, San Diego, CA)

In experiment [2] the target is T3, cynomolgus monkey NaPi2b (cynomolgus monkey, UniProt O95436 1-690 (human entry)).
T3 construct: also called Cyno NaPi2b; Cy NaPi2b
T3 chain: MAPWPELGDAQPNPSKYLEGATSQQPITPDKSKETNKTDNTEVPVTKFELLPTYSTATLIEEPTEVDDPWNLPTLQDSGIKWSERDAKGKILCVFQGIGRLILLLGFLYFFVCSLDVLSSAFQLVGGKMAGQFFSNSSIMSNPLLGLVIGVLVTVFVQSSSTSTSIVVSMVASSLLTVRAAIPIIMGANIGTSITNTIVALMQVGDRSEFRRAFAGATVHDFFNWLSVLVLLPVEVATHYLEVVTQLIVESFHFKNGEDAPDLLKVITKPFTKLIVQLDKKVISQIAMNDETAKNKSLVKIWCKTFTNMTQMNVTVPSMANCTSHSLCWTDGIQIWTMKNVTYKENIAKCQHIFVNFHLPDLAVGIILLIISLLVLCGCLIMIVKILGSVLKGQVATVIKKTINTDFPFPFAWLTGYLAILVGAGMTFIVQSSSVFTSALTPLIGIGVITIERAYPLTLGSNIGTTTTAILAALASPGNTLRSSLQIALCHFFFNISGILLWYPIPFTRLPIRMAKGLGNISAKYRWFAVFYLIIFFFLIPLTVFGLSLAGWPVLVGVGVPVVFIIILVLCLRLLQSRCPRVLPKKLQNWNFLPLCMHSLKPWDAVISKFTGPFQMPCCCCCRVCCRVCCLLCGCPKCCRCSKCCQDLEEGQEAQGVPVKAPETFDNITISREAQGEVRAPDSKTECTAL
As to the kind of experiment: flow cytometry on HEK293-6e cells transfected with cynomolgus monkey NaPi2b, 24 h at 4 C, anti-human IgG Fc AF647.
Protocol: (§2) Following transfection, cells were seeded at 50,000 cells/well in conical-bottom 96-well plates and treated with test antibody or antibody-drug conjugate for 24 hours at 4° C. to prevent internalization. […] Following incubation and washing, fluorescence was detected by flow cytometry on a BD LSRFortessa™ Cell Analyzer (BD Biosciences, Franklin Lake, NJ) with 1,000 minimum events collected per well.

The target in experiment [3] is T2, human sodium-dependent phosphate …. As to the kind of experiment: flow cytometry, HEK293-6e cells transfected with human NaPi2b.
Protocol: as §1
Experiment [4] has the same target. The experiment is described as follows: flow cytometry, HEK293-6e cells transfected with human NaPi2b; apparent Kd.
Protocol: as §1
Experiment [5] has as its target T3, cynomolgus monkey NaPi2b. The experiment is described as follows: flow cytometry, HEK293-6e cells transfected with cynomolgus NaPi2b; apparent Kd.
Protocol: as §1

Protocol for mouse NaPi2b: as §2

B1: v22277 (palivizumab, anti-RSV negative control, heterodimeric Fc) (antibody, human IgG1, kappa)
heavy 1: GQVTLRESGPALVKPTQTLTLTCTFSGFSLSTSGMSVGWIRQPPGKALEWLADIWWDDKKDYNPSLKSRLTISKDTSKNQVVLKVTNMDPADTATYYCARSMITNWYFDVWGAGTTVTVSSASTKGPSVFPLAPSSKSTSGGTAALGCLVKDYFPEPVTVSWNSGALTSGVHTFPAVLQSSGLYSLSSVVTVPSSSLGTQTYICNVNHKPSNTKVDKKVEPKSCDKTHTCPPCPAPELLGGPSVFLFPPKPKDTLMISRTPEVTCVVVDVSHEDPEVKFNWYVDGVEVHNAKTKPREEQYNSTYRVVSVLTVLHQDWLNGKEYKCKVSNKALPAPIEKTISKAKGQPREPQVYVYPPSRDELTKNQVSLTCLVKGFYPSDIAVEWESNGQPENNYKTTPPVLDSDGSFALVSKLTVDKSRWQQGNVFSCSVMHEALHNHYTQKSLSLSPG
heavy 2: not shown
light: GDIQMTQSPSTLSASVGDRVTITCKSQLSVGYMHWYQQKPGKAPKLLIYDTSKLASGVPSRFSGSGSGTEFTLTISSLQPDDFATYYCFQGSGYPFTFGGGTKLEIKRTVAAPSVFIFPPSDEQLKSGTASVVCLLNNFYPREAKVQWKVDNALQSGNSQESVTEQDSKDSTYSLSSTLTLSKADYEKHKVYACEVTHQGLSSPVTKSFNRGEC
notes: also called neg control
Consider B1, for which the binding result (with mouse NaPi2b; in experiment [1]) was “no binding (tested: 200 nM)” in each case.

B2: v38591 (humanized anti-NaPi2b antibody, wild-type Fc) (antibody, human IgG1, kappa)
heavy: not shown
light: DVQMTQSPSSLSASVGDRVTITCRASQDVYSYLNWYQQKPGKAVKLLIYYTSRLQSGVPSRFSGSGSGTDYTLTISSLQPEDFATYYCQQYNIFPWTFGQGTKLEIKRTVAAPSVFIFPPSDEQLKSGTASVVCLLNNFYPREAKVQWKVDNALQSGNSQESVTEQDSKDSTYSLSSTLTLSKADYEKHKVYACEVTHQGLSSPVTKSFNRGEC
notes: also called v38591 Wild-type; H1L2
Consider B2, for which the “EC50 (read off the curve)” value in the experiment with mouse NaPi2b and with cynomolgus monkey NaPi2b [2] was roughly 0.3 nM in each case.

B3: v18992 (MX35), reference anti-NaPi2b antibody (antibody, human IgG1, kappa)
heavy 1: GQVQLVQSGAEVVKPGASVKMSCKASGYTFTGYNIHWVKQAPGQGLEWIGAIYPGNGDTSYKQKFRGRATLTADTSTSTVYMELSSLRSEDSAVYYCARGETARATFAYWGQGTLVTVSSASTKGPSVFPLAPSSKSTSGGTAALGCLVKDYFPEPVTVSWNSGALTSGVHTFPAVLQSSGLYSLSSVVTVPSSSLGTQTYICNVNHKPSNTKVDKKVEPKSCDKTHTCPPCPAPELLGGPSVFLFPPKPKDTLMISRTPEVTCVVVDVSHEDPEVKFNWYVDGVEVHNAKTKPREEQYNSTYRVVSVLTVLHQDWLNGKEYKCKVSNKALPAPIEKTISKAKGQPREPQVYVYPPSRDELTKNQVSLTCLVKGFYPSDIAVEWESNGQPENNYKTTPPVLDSDGSFALVSKLTVDKSRWQQGNVFSCSVMHEALHNHYTQKSLSLSPG
heavy 2: not shown
light: GDIQMTQSPSSLSASVGDRVTITCSASQDIGNFLNWYQQKPGKTVKVLIYYTSSLYSGVPSRFSGSGSGTDYTLTISSLQPEDFATYYCQQYSKLPLTFGQGTKLELKRTVAAPSVFIFPPSDEQLKSGTASVVCLLNNFYPREAKVQWKVDNALQSGNSQESVTEQDSKDSTYSLSSTLTLSKADYEKHKVYACEVTHQGLSSPVTKSFNRGEC
On to B3, for which the Bmax in experiment [3] stood at 1900. For the same molecule, the Kd in experiment [4] was 1.98 nM; with cynomolgus monkey NaPi2b [5] it was 31 nM.

B4: v18993 (lifastuzumab), reference anti-NaPi2b antibody (antibody, human IgG1, kappa)
heavy 1: GEVQLVESGGGLVQPGGSLRLSCAASGFSFSDFAMSWVRQAPGKGLEWVATIGRVAFHTYYPDSMKGRFTISRDNSKNTLYLQMNSLRAEDTAVYYCARHRGFDVGHFDFWGQGTLVTVSSASTKGPSVFPLAPSSKSTSGGTAALGCLVKDYFPEPVTVSWNSGALTSGVHTFPAVLQSSGLYSLSSVVTVPSSSLGTQTYICNVNHKPSNTKVDKKVEPKSCDKTHTCPPCPAPELLGGPSVFLFPPKPKDTLMISRTPEVTCVVVDVSHEDPEVKFNWYVDGVEVHNAKTKPREEQYNSTYRVVSVLTVLHQDWLNGKEYKCKVSNKALPAPIEKTISKAKGQPREPQVYVYPPSRDELTKNQVSLTCLVKGFYPSDIAVEWESNGQPENNYKTTPPVLDSDGSFALVSKLTVDKSRWQQGNVFSCSVMHEALHNHYTQKSLSLSPG
heavy 2: not shown
light: GDIQMTQSPSSLSASVGDRVTITCRSSETLVHSSGNTYLEWYQQKPGKAPKLLIYRVSNRFSGVPSRFSGSGSGTDFTLTISSLQPEDFATYYCFQGSFNPLTFGQGTKVEIKRTVAAPSVFIFPPSDEQLKSGTASVVCLLNNFYPREAKVQWKVDNALQSGNSQESVTEQDSKDSTYSLSSTLTLSKADYEKHKVYACEVTHQGLSSPVTKSFNRGEC
In turn, B4 displayed a Bmax in experiment [3] of 1610. In addition, the Kd in experiment [4] turned out to be 1.22 nM; in the experiment with cynomolgus monkey NaPi2b [5], 6.27 nM. Further, the half-maximal effective concentration (EC50 (read off the curve)) was roughly 5 nM with cynomolgus monkey NaPi2b [2] and roughly 1 nM in experiment [1].

The values are drawn from patent US20260232827A1 (Zymeworks, published 2026).
